Experimental findings from article PMC9604523, “Discovery of New Phenylacetone Monooxygenase Variants for the Development of Substituted Indigoids through Biocatalysis” (International Journal of Molecular Sciences, 2022) are described below.

Substrate in data set [1]: NC(=O)C1=CN([C@@H]2O[C@H](COP(=O)(O)OP(=O)(O)OC[C@H]3O[C@@H](n4cnc5c(N)ncnc54)[C@H](OP(=O)(O)O)[C@@H]3O)[C@@H](O)[C@H]2O)C=CC1
Briefly: purified protein. The class given is biochemical, Thermobifida fusca. The following applies: 50 mM phosphate pH 8.0, 1 µM enzyme, NADPH varied 5.0-500 µM, varied: cofactor.

Substrate in data set [2]: c1ccc2[nH]ccc2c1
Briefly: purified protein. It is filed as biochemical, Thermobifida fusca. To be noted: 50 mM phosphate pH 8.0, 1 µM enzyme, indole varied 0.05-1 mM, NADPH fixed at saturating concentration.

[3] abbreviates: indole fixed at saturating concentration (wild type does not use indole; NADPH depletion control).
Where [4] appears, read: indole fixed at saturating concentration.

B1: PAMO (phenylacetone monooxygenase; PAMOWT, PAMOHPCD, PAMOHPED) (Thermobifida fusca YX) (protein)
chain: MAGQTTVDSRRQPPEEVDVLVVGAGFSGLYALYRLRELGRSVHVIETAGDVGGVWYWNRYPGARCDIESIEYCYSFSEEVLQEWNWTERYASQPEILRYINFVADKFDLRSGITFHTTVTAAAFDEATNTWTVDTNHGDRIRARYLIMASGQLSVPQLPNFPGLKDFAGNLYHTGNWPHEPVDFSGQRVGVIGTGSSGIQVSPQIAKQAAELFVFQRTPHFAVPARNAPLDPEFLADLKKRYAEFREESRNTPGGTHRYQGPKSALEVSDEELVETLERYWQEGGPDILAAYRDILRDRDANERVAEFIRNKIRNTVRDPEVAERLVPKGYPFGTKRLILEIDYYEMFNRDNVHLVDTLSAPIETITPRGVRTSEREYELDSLVLATGFDALTGALFKIDIRGVGNVALKEKWAAGPRTYLGLSTAGFPNLFFIAGPGSPSALSNMLVSIEQHVEWVTDHIAYMFKNGLTRSEAVLEKEDEWVEHVNEIADETLYPMTASWYTGANVPGKPRVFMLYVGGFHRYRQICDEVAAKGYEGFVLT
For orientation: Km means the substrate concentration at which the rate is half of its maximum. The term kcat denotes the number of substrate molecules converted per active site and unit of time at saturation. One may read the kcat/Km as the turnover number divided by the Michaelis constant. Take B1: in “purified protein [1]” (setting [3]), the Km amounted to 0.9 µM, the kcat was found to be 4.8 s⁻¹ and the kcat/Km is 5.2e+06 M⁻¹ s⁻¹.

B2: PAMO (phenylacetone monooxygenase; PAMOWT, PAMOHPCD, PAMOHPED) (Thermobifida fusca YX; A442P/L443E/P440F/P94D/Q93N/S441H/S444D) (protein)
chain: MAGQTTVDSRRQPPEEVDVLVVGAGFSGLYALYRLRELGRSVHVIETAGDVGGVWYWNRYPGARCDIESIEYCYSFSEEVLQEWNWTERYASNDEILRYINFVADKFDLRSGITFHTTVTAAAFDEATNTWTVDTNHGDRIRARYLIMASGQLSVPQLPNFPGLKDFAGNLYHTGNWPHEPVDFSGQRVGVIGTGSSGIQVSPQIAKQAAELFVFQRTPHFAVPARNAPLDPEFLADLKKRYAEFREESRNTPGGTHRYQGPKSALEVSDEELVETLERYWQEGGPDILAAYRDILRDRDANERVAEFIRNKIRNTVRDPEVAERLVPKGYPFGTKRLILEIDYYEMFNRDNVHLVDTLSAPIETITPRGVRTSEREYELDSLVLATGFDALTGALFKIDIRGVGNVALKEKWAAGPRTYLGLSTAGFPNLFFIAGPGSFHPEDNMLVSIEQHVEWVTDHIAYMFKNGLTRSEAVLEKEDEWVEHVNEIADETLYPMTASWYTGANVPGKPRVFMLYVGGFHRYRQICDEVAAKGYEGFVLT
With B2, in “purified protein [1]” (setting [4]), the Km is on record as 4.4 µM, the kcat amounted to 1.9 s⁻¹ and the kcat/Km was found to be 430000 M⁻¹ s⁻¹. Moreover, in “purified protein [2]”, the Km came to 109.0 µM, the kcat was determined as 1.7 s⁻¹ and the catalytic efficiency (kcat/Km) came out at 16000 M⁻¹ s⁻¹.

B3: PAMO (phenylacetone monooxygenase; PAMOWT, PAMOHPCD, PAMOHPED) (Thermobifida fusca YX; A442P/L443C/P440F/P94D/Q93N/S441H/S444D) (protein)
chain: MAGQTTVDSRRQPPEEVDVLVVGAGFSGLYALYRLRELGRSVHVIETAGDVGGVWYWNRYPGARCDIESIEYCYSFSEEVLQEWNWTERYASNDEILRYINFVADKFDLRSGITFHTTVTAAAFDEATNTWTVDTNHGDRIRARYLIMASGQLSVPQLPNFPGLKDFAGNLYHTGNWPHEPVDFSGQRVGVIGTGSSGIQVSPQIAKQAAELFVFQRTPHFAVPARNAPLDPEFLADLKKRYAEFREESRNTPGGTHRYQGPKSALEVSDEELVETLERYWQEGGPDILAAYRDILRDRDANERVAEFIRNKIRNTVRDPEVAERLVPKGYPFGTKRLILEIDYYEMFNRDNVHLVDTLSAPIETITPRGVRTSEREYELDSLVLATGFDALTGALFKIDIRGVGNVALKEKWAAGPRTYLGLSTAGFPNLFFIAGPGSFHPCDNMLVSIEQHVEWVTDHIAYMFKNGLTRSEAVLEKEDEWVEHVNEIADETLYPMTASWYTGANVPGKPRVFMLYVGGFHRYRQICDEVAAKGYEGFVLT
Regarding B3, in the data set “purified protein [1]” (setting [4]), the Km was found to be 7.6 µM, the kcat is 6.8 s⁻¹ and the specificity constant (kcat/Km) was 900000 M⁻¹ s⁻¹. For the same protein, in the data set “purified protein [2]”, the Km is reported as 58.2 µM, the kcat came to 5.4 s⁻¹ and the kcat/Km was found to be 93000 M⁻¹ s⁻¹.
